Test results: the supplement of paper PMC12764529
± gives the half width of the 95% confidence interval.

Columns and labels:
[1] = folding stability dG unfold from chymotrypsin proteolysis; higher = more stable
Outline: (§1)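 K50 was inferred by Bayesian fitting of sequencing counts obtained after protease digestion of designed mini-proteins. Unfolding free energy was derived by comparison with a sequence-predicted unfolded-state K50 and a shared folded-state K50, for each protease or both combined. The mini-proteins were under 80 residues, had no cysteine, were carried in a PA-tagged cDNA display construct, and were kept only if AlphaFold2 dimer inter-PAE exceeded 15.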

[2] = folding stability dG unfold from trypsin proteolysis; higher = more stable
Outline: as §1

[3] = folding stability dG unfold (combined trypsin and chymotrypsin); higher = more stable
Outline: as §1

Row | Sequence | folding stability dG unfold [1] [kcal/mol] | folding stability dG unfold [2] [kcal/mol] | folding stability dG unfold [3] [kcal/mol]
1 | ITIRIPPNGNIRIEMIDPNGKWWTYTFPVKDPEENLQRLKDIIRDFFPGFEDVDVKITEVEDGWVTITVPLS [r1_389_TrROS] | 4.96 ± 0.23 | 4.05 ± 0.17 | 4.76 ± 0.21
2 | SAGGSAGGSAGGSKKYFFKIKKIKVETKLEVNEDGSLTEEKKIEIEIELRELPSLEDLLSAGGSAGGSAGGS [r4_450_TrROS_Hall] | 4.62 ± 0.17 | 3.56 ± 0.25 | 4.16 ± 0.2
3 | SAGKVIVIDAEEMTEEELKEILKKTKPGEKILIIAKSKEVAEKLKELGFEVEEVEKVPLTEEELKKLKKSAG [r5_354_TrROS_Hall] | 1.27 ± 0.028 | 0.835 ± 0.063 | 1.08 ± 0.14
4 | SAGGSAGGSAGMKIEYEHDPNRNWYTVKIDFPNGPPKIPIQVPHDDMPPNDLRDWAKELFSAGGSAGGSAGG [r11_557_TrROS] | 0.58 ± 0.33 | 0.459 ± 0.12 | 0.475 ± 0.28
5 | SAGGSGTESKEYPDSKVTVTPVPLPLGDGAPVLRVTTVPKLPNGEPVTTVTLVDPDSDVVVTEETLSAGGSA [r2_484_JUSTAS] | 0.925 ± 0.012 | -0.0208 ± 0.028 | 0.598 ± 0.044
6 | SAGGMVTSTVSVDPSVPKTTTTETFSDGTRVVTTTTELPSGLTVTTTTVTVPPDGSTTATSTTTTIAPSAGG [r13_230_JUSTAS] | 0.958 ± 0.044 | 1.62 ± 0.064 | 1.27 ± 0.11
7 | SAGGSMETRETLEERTLPNGEKVLTTTTTYPDGTVTTRTTVIHGGTSTVTTTTTPAAPVPGPAPARASAGGS [r16_523_JUSTAS] | 2.01 ± 0.059 | 0.422 ± 0.028 | 1.55 ± 0.085
8 | WRIRVEIEMYNPDGDPMEMEIQIPVDKLQELRQEGEPFTKEELVDEIVEIIRDMMPEHGMPIEIKIVEIVPS [r1_174_TrROS] | 1.76 ± 0.074 | 1.64 ± 0.051 | 1.76 ± 0.2
9 | SAGGSAGGSASMAPPEVLSLPVEILEKSPDGSVTVLVPETGEVLTFPSPKVNVTPDGTLNLSSAGGSAGGSA [r18_89_JUSTAS] | -0.611 ± 0.16 | 0.416 ± 0.042 | 0.0808 ± 0.1
10 | SADPNYHYKYKIKIEIAWFPPDDLEKLPPGMIMIPFDDHWIMIVIKLEPVEREPPPPPPEYDPETGDWKSAG [r14_126_TrROS] | 3.38 ± 0.17 | 2.5 ± 0.43 | 3.23 ± 0.46
11 | SAGGSAGGSAGKIKIKNEDGSEYEVKKIEITIKNENGEKKKIKLEIELPKAKEVKIEKKKSAGGSAGGSAGG [r11_804_TrROS_Hall] | 0.32 ± 0.087 | -1.2 ± 0.83 | -0.13 ± 0.29
12 | SAGGSAGGSMELDEDGRLIVRIKVRDKETKEWKEIEIELPGLTEEEIRKLAEELGAEEIEILPSAGGSAGGS [r12_792_TrROS_Hall] | 2.39 ± 0.083 | 2.35 ± 0.061 | 2.43 ± 0.078
13 | SAGGSAGGSAGGSVTSTSSVGSSPGSTTTLTYPEKPLYVTVYTELKDDPTVVTTETFPLLSAGGSAGGSAGG [r7_509_JUSTAS] | 1.73 ± 0.066 | 1.22 ± 0.19 | 1.56 ± 0.39
14 | SAGGPPPKWVKIDIFIFIYNPDNGRPIFIRITSIEIRLDENNELDVEIEFEVFDPNGKPVKYTMTFKSAGGS [r16_200_TrROS] | 4.8 ± 0.11 | 3.81 ± 0.12 | 4.45 ± 0.24
15 | SAGGSFIKITTKLPNRKIEIPIPDAEIEVEGNTVTITFPPGNAEEVKKAVLEASDEVEITEVKIIDESAGGS [r8_490_JUSTAS] | 0.871 ± 0.026 | -0.107 ± 0.04 | 0.557 ± 0.087
16 | SAGGSATLTLPEDVVKEVFTAKVGDKEYRPVVFRSPDDEWVLVLVLRRDPNGNTSAVAALLPKDAVSAGGSA [r15_986_TrMRF] | 1.8 ± 0.16 | 1.49 ± 0.047 | 1.64 ± 0.13
17 | SAGGSAGGSMLVEVEYEGGERRTFPLENRSVEEAVEALPEGVTRVRVTVYLGEKPVEFEVERPSAGGSAGGS [r12_767_TrMRF] | 1.07 ± 0.067 | 0.271 ± 0.077 | 0.799 ± 0.052
18 | SAGGSAGGSTVEEIADFFKQQGFTDAEINVMPPPNGRRYVTVRFEMKEPNGNKHKMNFSIWIPSAGGSAGGS [r12_246_TrROS] | 1.99 ± 0.16 | 2.53 ± 0.16 | 2.31 ± 0.34
19 | SAGGSAGGSAGGNIKVDDVHHNPNNYRQVKIDLPGGKPIKIWMSMDDPNNVKEIAKEIFSAGGSAGGSAGGS [r10_472_TrROS] | -0.414 ± 0.18 | -0.191 ± 0.048 | -0.22 ± 0.1
20 | SAGGDFKPPVPTTQVLTFTIETSPEDPEKAKEIAEKLKKELLEKGAVKIEVTLDPEPGTVTVTVTLVKLSAG [r5_512_JUSTAS] | 2.92 ± 0.063 | 1.95 ± 0.069 | 2.51 ± 0.19
21 | SAGGKKPKVKKVKVKLTLVDPETGEEVEVEAELYELPDGYVVLTVRNKKTGKTYRFVFKDGKLYLEPVSAGG [r13_117_TrROS_Hall] | 4.46 ± 0.11 | 2.88 ± 0.1 | 4.12 ± 0.35

Row | Sequence | folding stability dG unfold [1] [kcal/mol] | folding stability dG unfold [2] [kcal/mol] | folding stability dG unfold [3] [kcal/mol]
22 | SAKLAKELAEELAKEILPKFPNIKAVKVEVEPLGDYAIATIIWEKENGKPIISKAIIEKNKKILKVDISSAG [r14_719_TrMRF] | 1.26 ± 0.043 | 1.02 ± 0.047 | 1.19 ± 0.19
23 | SAGGSAGGSAGGMVRITVEVDGKTYELVVEGMSLEEIEELLKKPNIKKAKVEPLSEEELKSAGGSAGGSAGG [r7_502_TrROS_Hall] | 2.71 ± 0.09 | 1.24 ± 0.04 | 2.32 ± 0.098
24 | SAGGSAGGSKKPIPVKVIETKPDPEIGGITTVELEFPDGSKATFTSIEDIEKIPDIEVEIKLGSAGGSAGGS [r20_192_TrMRF] | 0.639 ± 0.043 | 0.591 ± 0.027 | 0.648 ± 0.056
25 | SAGGPKKRKWVTFTIDIYIPTPPGQSIEDEARKLAENLGIEITDVEVEPHPNGMVKIDVTVTIWIPYSAGGS [r8_292_TrROS] | 4.37 ± 0.097 | 2.84 ± 0.062 | 3.91 ± 0.13
26 | SAGGSAGGSKKKLTLTLKVEYVDEETGEKRTVTLTITAESEEEAKAALEELAKKLPPGARIEVSAGGSAGGS [r20_211_TrROS_Hall] | 4.44 ± 0.11 | 3.3 ± 0.16 | 4.21 ± 0.19
27 | SAGGSAGGSWDRIKDALRKYGFPPENVKIEFETYPNGNMNVMIRHNGEQIPRNRINKAIQELMSAGGSAGGS [r12_175_TrROS] | 1.46 ± 0.096 | 1.27 ± 0.035 | 1.54 ± 0.22
28 | SAGGMTIEKEDGKYRITITINGKTYTFTIPKELENKTEEEIAAELAAELAEKFGLKEITEIKIEKVPSAGGS [r8_402_TrROS_Hall] | 3.559 ± 0.025 | 2.38 ± 0.096 | 3.14 ± 0.1
29 | SAGGSMKPSKVTEVTHPDGTRFTVTEYPEVPLLTLTIERPETGTTTTVKTKSREEAEKVLAELVASSAGGSA [r2_70_JUSTAS] | 0.306 ± 0.16 | 0.696 ± 0.068 | 0.596 ± 0.11
30 | SAGGSAKITIEYDPETGTITIKVELTNEDNGKKVTKEYEIKVDGKLIRIKIDANTGEIVEIEVLPPSAGGSA [r2_331_TrROS_Hall] | 3.38 ± 0.13 | 3.52 ± 0.17 | 3.55 ± 0.15
31 | SAGGSIKIDEIEPDPPGDRVKVKMDIPVPMYDPNGKPKEPMPIKITAEARVDPENGELAINMDIEMSAGGSA [r2_220_TrROS] | 1.4 ± 0.33 | 2.73 ± 0.41 | 1.67 ± 0.53
32 | SMLPLLPPRRLLIEVVFPLPEDATPEQLELAERAAEALADVLEALGFKDVRVLVEPTDPGDVLILAEVEASA [r9_865_TrMRF] | 1.97 ± 0.034 | 1.49 ± 0.023 | 1.82 ± 0.074
33 | GEVVERLKLPDLELVEVRTTTEGDTTFVYVKLKRPDSYYVVKLTVTPATGEVTVTEEKKVSPNETLEEVLAS [r1_383_JUSTAS] | 2.76 ± 0.12 | 1.66 ± 0.12 | 2.36 ± 0.21
34 | SAGGSAGGSAGGLPPDVRLRVRITRPDGTVLEFDAPADVEIFFPDVPPEWRIEVDAEDVSAGGSAGGSAGGS [r10_774_TrMRF] | 2.49 ± 0.057 | 0.732 ± 0.061 | 2.09 ± 0.16
35 | SAGGSAGGSAGGEPELVFKVRVRTKDGRELEIEVSAEDLEKLLEALPDIEEVEIEEVEPSAGGSAGGSAGGS [r10_437_TrROS_Hall] | 2.68 ± 0.071 | 2.39 ± 0.087 | 2.6 ± 0.14
36 | SAGGSAGGSAGGKVTVTPDGRLVIEKPKVTVEPVEVEEVEVELELKLSPEELEELLKKLSAGGSAGGSAGGS [r10_1096_TrROS_Hall] | 0.745 ± 0.044 | 0.51 ± 0.17 | 0.554 ± 0.19
37 | SAGGSAGGSAGGGRMLLTETETIFSPSGGESVVTRLVTVFRPPPPVFLPDPEGRWSELVSAGGSAGGSAGGS [r10_330_JUSTAS] | 0.769 ± 0.3 | 0.999 ± 0.14 | 0.856 ± 0.22
38 | GYTITSEVEEFEDPNSDAKYTKVTIPVVDGDPEVAREAAEEIAKERFGPGATLDIKYDPETGTVTATFTVAS [r1_273_JUSTAS] | 0.379 ± 0.1 | 0.511 ± 0.026 | 0.563 ± 0.081
39 | SAGGSAGGSAGGMTIVIVVPAENLTPEEIAELLREAGYEVTVERREDGYLVVTVRLPEPSAGGSAGGSAGGS [r10_1254_TrROS_Hall] | 3.08 ± 0.052 | 3.5 ± 0.083 | 3.43 ± 0.048
40 | SAGGSAGGSYKIDKIEVQPPPGGYYQATIEVEQVDPENGNPQRQEQEIPVPANDPKQIKDFLKSAGGSAGGS [r12_691_TrROS] | 0.379 ± 0.16 | -0.523 ± 0.19 | 0.174 ± 0.22
41 | SMEPGERYRITATRKDGSRVEVEAIPGGVLRARVYLPNGELVGEAEFPVDRPVELLEALGLDELVSVEPESA [r9_1107_TrMRF] | 2.42 ± 0.043 | 2.17 ± 0.051 | 2.32 ± 0.086
42 | SAGGFEFKAVKLKKNEEKEGELGGAKVRYVSDNKGPVYQVVEFGPEYRALAKVEGDKVELVAVEEGNPSAGG [r13_92_TrMRF] | 0.00343 ± 0.21 | -1.02 ± 0.66 | -0.21 ± 0.16
